Measurements taken from patent publication US20190015518A1, “DRUG DELIVERY COMPOSITIONS AND METHODS” (priority 2016, published 2019).

Test: Urinalysis of a healthy dog given 1.5 mg/kg on day 1 and 2.0 mg/kg on day 70, sub-mucosa
Format: in vivo
Protocol: Before each dose, the dog was examined by clinical chemistry, hematology, and urinalysis. Additional examinations of clinical chemistry and hematology were performed on days 7, 14, and 42 after the first dose. Additional tests of urinalysis were performed on days 7 and 14 after the first dose. The potential drug-induced toxicities were monitored for 56 days after the second dose. Specifically, clinical chemistry and urinalysis were performed on days 7, 14, 21, and 56, and hematology was performed on days 7, 14, and 56 after the second dose to evaluate the tolerability and toxicity of the formulation.
Urianlyses were performed at pre- and post-dose for both injections. The injections were given via the sub-mucosa in the mouth.

Q: With “HA-cis-[Pt(NH3)2(N^α-Acetyl-L-Lysine)] [75HA-Lys-Pt]” as the substance, how does the Urobilinogen (2 mg/kg, 7 days after) read?
A: Its Urobilinogen is 0.2 E.U./dL.

Q: And the “urine Bilirubin” value (2 mg/kg, 7 days after)?
A: Its value is “Moderate”.

Q: And the “urine Blood” value (2 mg/kg, 7 days after)?
A: Its value is “Negative”.

Q: What about the “urine Clarity” value (2 mg/kg, 7 days after) of the same substance?
A: Its value is “Clear”.

Q: What about the “urine Color” value (2 mg/kg, 7 days after) of the same substance?
A: The value was “Dark Yellow”.

Q: And the “urine Glucose” value (2 mg/kg, 7 days after)?
A: The value was “Negative”.

Q: And the “urine Ketones” value (2 mg/kg, 7 days after)?
A: The value was “Negative”.

Q: And the “urine Leukocytes” value (2 mg/kg, 7 days after)?
A: Its value is “Negative”.

Q: What about the “urine Nitrite” value (2 mg/kg, 7 days after) of the same substance?
A: Its value is “Negative”.

Q: What about the “urine Protein” value (2 mg/kg, 7 days after) of the same substance?
A: Its value is 30 mg/dL.

Q: And the “urine Specific Gravity” value (2 mg/kg, 7 days after)?
A: Its value is 1.053.

Q: And the “urine pH” value (2 mg/kg, 7 days after)?
A: Its value is 7.0.

Q: And the Urobilinogen (2 mg/kg, 14 days after)?
A: Its Urobilinogen is 0.2 E.U./dL.

Q: What about the “urine Bilirubin” value (2 mg/kg, 14 days after) of the same substance?
A: Its value is “Negative”.

Q: And the “urine Blood” value (2 mg/kg, 14 days after)?
A: Its value is “Large”.

Q: And the “urine Clarity” value (2 mg/kg, 14 days after)?
A: The value was “Clear”.

Q: What about the “urine Color” value (2 mg/kg, 14 days after) of the same substance?
A: The value was “Light Yellow”.

Q: And the “urine Glucose” value (2 mg/kg, 14 days after)?
A: The value was 100 mg/dL.

Q: What about the “urine Ketones” value (2 mg/kg, 14 days after) of the same substance?
A: Its value is “Negative”.

Q: What about the “urine Leukocytes” value (2 mg/kg, 14 days after) of the same substance?
A: The value was “Negative”.

Q: What about the “urine Nitrite” value (2 mg/kg, 14 days after) of the same substance?
A: Its value is “Negative”.

Q: What about the “urine Protein” value (2 mg/kg, 14 days after) of the same substance?
A: Its value is no less than 300 mg/dL.

Q: What about the “urine Specific Gravity” value (2 mg/kg, 14 days after) of the same substance?
A: Its value is 1.010.

Q: And the “urine pH” value (2 mg/kg, 14 days after)?
A: Its value is 7.5.

Q: What about the Urobilinogen (2 mg/kg, 21 days after) of the same substance?
A: The Urobilinogen was 1.0 E.U./dL.

Q: And the “urine Bilirubin” value (2 mg/kg, 21 days after)?
A: The value was “Moderate”.

Q: What about the “urine Blood” value (2 mg/kg, 21 days after) of the same substance?
A: Its value is “Small”.

Q: What about the “urine Clarity” value (2 mg/kg, 21 days after) of the same substance?
A: The value was “Clear”.

Q: What about the “urine Color” value (2 mg/kg, 21 days after) of the same substance?
A: Its value is “Dark Orange”.

Q: What about the “urine Glucose” value (2 mg/kg, 21 days after) of the same substance?
A: The value was “Negative”.

Q: And the “urine Ketones” value (2 mg/kg, 21 days after)?
A: Its value is “Trace”.

Q: And the “urine Leukocytes” value (2 mg/kg, 21 days after)?
A: The value was “Negative”.

Q: And the “urine Nitrite” value (2 mg/kg, 21 days after)?
A: The value was “Negative”.

Q: And the “urine Protein” value (2 mg/kg, 21 days after)?
A: The value was 30 mg/dL.

Q: And the “urine Specific Gravity” value (2 mg/kg, 21 days after)?
A: The value was 1.044.

Q: What about the “urine pH” value (2 mg/kg, 21 days after) of the same substance?
A: Its value is 7.0.

Q: And the Urobilinogen (2 mg/kg, 56 days after)?
A: The Urobilinogen was 1.0 E.U./dL.

Q: And the “urine Bilirubin” value (2 mg/kg, 56 days after)?
A: The value was “Moderate”.

Q: And the “urine Blood” value (2 mg/kg, 56 days after)?
A: The value was “Large”.

Q: And the “urine Clarity” value (2 mg/kg, 56 days after)?
A: Its value is “Clear”.

Q: And the “urine Color” value (2 mg/kg, 56 days after)?
A: Its value is “Dark Orange”.

Q: And the “urine Glucose” value (2 mg/kg, 56 days after)?
A: The value was “Negative”.

Q: And the “urine Ketones” value (2 mg/kg, 56 days after)?
A: Its value is “Negative”.

Q: And the “urine Leukocytes” value (2 mg/kg, 56 days after)?
A: Its value is “Negative”.

Q: And the “urine Nitrite” value (2 mg/kg, 56 days after)?
A: Its value is “Negative”.

Q: And the “urine Protein” value (2 mg/kg, 56 days after)?
A: Its value is 30 mg/dL.

Q: What about the “urine Specific Gravity” value (2 mg/kg, 56 days after) of the same substance?
A: Its value is 1.030.

Q: What about the “urine pH” value (2 mg/kg, 56 days after) of the same substance?
A: The value was 8.0.

Q: What about the Urobilinogen ([…], 7 days after) of the same substance?
A: The Urobilinogen was 0.2 E.U./dL.

Q: What about the “urine Bilirubin” value ([…], 7 days after) of the same substance?
A: The value was “Negative”.

Q: What about the “urine Blood” value ([…], 7 days after) of the same substance?
A: Its value is “Negative”.

Q: What about the “urine Clarity” value ([…], 7 days after) of the same substance?
A: Its value is “Cloudy”.

Q: And the “urine Color” value ([…], 7 days after)?
A: The value was “Yellow”.

Q: And the “urine Glucose” value ([…], 7 days after)?
A: The value was “Negative”.

Q: What about the “urine Ketones” value ([…], 7 days after) of the same substance?
A: The value was “Negative”.

Q: What about the “urine Leukocytes” value ([…], 7 days after) of the same substance?
A: The value was “Negative”.

Q: And the “urine Nitrite” value ([…], 7 days after)?
A: The value was “Negative”.

Q: What about the “urine Protein” value ([…], 7 days after) of the same substance?
A: Its value is “Negative”.

Q: What about the “urine Specific Gravity” value ([…], 7 days after) of the same substance?
A: Its value is 1.023.

Q: And the “urine pH” value ([…], 7 days after)?
A: The value was 8.0.

Q: And the Urobilinogen ([…], 14 days)?
A: The Urobilinogen was 0.2 E.U./dL.

Q: And the “urine Blood” value ([…], 14 days)?
A: Its value is “Large”.

Q: And the “urine Clarity” value ([…], 14 days)?
A: The value was “Cloudy”.

Q: What about the “urine Color” value ([…], 14 days) of the same substance?
A: The value was “Yellow”.

Q: And the “urine Glucose” value ([…], 14 days)?
A: Its value is “Negative”.

Q: And the “urine Ketones” value ([…], 14 days)?
A: Its value is “Negative”.

Q: What about the “urine Leukocytes” value ([…], 14 days) of the same substance?
A: The value was “Negative”.

Q: What about the “urine Nitrite” value ([…], 14 days) of the same substance?
A: Its value is “Negative”.

Q: And the “urine Protein” value ([…], 14 days)?
A: The value was 30 mg/dL.

Q: And the “urine Specific Gravity” value ([…], 14 days)?
A: The value was 1.038.

Q: What about the “urine pH” value ([…], 14 days) of the same substance?
A: The value was 6.5.

Q: And the long-term renal damage (healthy dog)?
A: The long-term renal damage was “did not appear to cause long-term renal damage”.
